Test results reported in patent publication US20140378382A1 (WISCONSIN ALUMNI RESEARCH FOUNDATION, published 2014).
Where two headings read alike, the source gives them in different places. Values belong to the binder of their own block, whether it stands above or below them. Non-standard residues stand in square brackets, D forms with d. No end group written: not given here. APC = aminopyrrolidine carboxylic acid (2-aminopyrrolidine-4-carboxylic acid); ACPC = 2-aminocyclopentane carboxylic acid; hArg = N=C(N)NCCCC[C@H](N)C(=O)O; Aib = CC(C)(N)C(=O)O

What was measured:
[1] = target: T1, human parathyroid hormone receptor 1, wild-type (hPTHR-1) (human, UniProt Q03431 27-593); assay: cell-based or functional assay
T1 sequence (looked up): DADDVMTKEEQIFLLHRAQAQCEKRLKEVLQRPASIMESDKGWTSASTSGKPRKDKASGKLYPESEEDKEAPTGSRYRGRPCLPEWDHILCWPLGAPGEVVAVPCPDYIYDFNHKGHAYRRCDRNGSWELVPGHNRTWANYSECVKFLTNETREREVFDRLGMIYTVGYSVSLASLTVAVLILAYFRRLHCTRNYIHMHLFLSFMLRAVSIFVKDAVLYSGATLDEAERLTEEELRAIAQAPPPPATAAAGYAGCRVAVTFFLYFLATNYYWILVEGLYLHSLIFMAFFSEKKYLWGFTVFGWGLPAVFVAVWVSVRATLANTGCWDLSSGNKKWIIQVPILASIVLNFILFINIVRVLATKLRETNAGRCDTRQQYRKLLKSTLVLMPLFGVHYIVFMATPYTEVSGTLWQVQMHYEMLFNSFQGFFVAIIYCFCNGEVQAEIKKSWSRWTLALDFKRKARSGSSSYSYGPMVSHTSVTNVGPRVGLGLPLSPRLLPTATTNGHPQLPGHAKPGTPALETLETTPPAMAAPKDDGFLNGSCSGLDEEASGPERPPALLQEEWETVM

[2] = target: T1, human parathyroid hormone receptor 1, …; assay: cell-based or functional assay; remark: listed apart in the source
[3] = target: T1, human parathyroid hormone receptor 1, …; assay: cell-based or functional assay; remark: listed apart in the source
[4] = target: T2, rat parathyroid hormone receptor 1, wild-type (rPTHR-1) (rat, UniProt P25961 27-591); assay: cell-based or functional assay
T2 sequence (looked up): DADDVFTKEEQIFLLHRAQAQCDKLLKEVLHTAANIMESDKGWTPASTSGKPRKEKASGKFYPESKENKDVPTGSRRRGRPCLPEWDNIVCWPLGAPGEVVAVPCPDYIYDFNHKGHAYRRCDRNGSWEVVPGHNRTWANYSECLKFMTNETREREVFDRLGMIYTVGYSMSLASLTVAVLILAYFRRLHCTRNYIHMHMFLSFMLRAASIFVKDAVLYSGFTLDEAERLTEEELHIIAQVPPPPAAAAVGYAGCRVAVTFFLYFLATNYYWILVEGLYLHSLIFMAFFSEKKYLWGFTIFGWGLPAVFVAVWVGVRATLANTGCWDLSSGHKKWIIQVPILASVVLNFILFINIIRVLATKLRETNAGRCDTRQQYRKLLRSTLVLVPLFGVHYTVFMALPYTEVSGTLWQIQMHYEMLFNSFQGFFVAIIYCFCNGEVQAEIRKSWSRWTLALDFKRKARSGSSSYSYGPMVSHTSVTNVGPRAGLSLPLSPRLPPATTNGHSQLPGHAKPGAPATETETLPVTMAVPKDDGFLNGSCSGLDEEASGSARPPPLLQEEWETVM

[5] = target: T1, human parathyroid hormone receptor 1, …; assay: cell-based or functional assay; remark: listed apart in the source
[6] = target: T3, PTHR-1 (species and cells not stated for the assay) (Homo sapiens (Human), UniProt Q03431 27-593); assay: cell-based or functional assay
T3 sequence: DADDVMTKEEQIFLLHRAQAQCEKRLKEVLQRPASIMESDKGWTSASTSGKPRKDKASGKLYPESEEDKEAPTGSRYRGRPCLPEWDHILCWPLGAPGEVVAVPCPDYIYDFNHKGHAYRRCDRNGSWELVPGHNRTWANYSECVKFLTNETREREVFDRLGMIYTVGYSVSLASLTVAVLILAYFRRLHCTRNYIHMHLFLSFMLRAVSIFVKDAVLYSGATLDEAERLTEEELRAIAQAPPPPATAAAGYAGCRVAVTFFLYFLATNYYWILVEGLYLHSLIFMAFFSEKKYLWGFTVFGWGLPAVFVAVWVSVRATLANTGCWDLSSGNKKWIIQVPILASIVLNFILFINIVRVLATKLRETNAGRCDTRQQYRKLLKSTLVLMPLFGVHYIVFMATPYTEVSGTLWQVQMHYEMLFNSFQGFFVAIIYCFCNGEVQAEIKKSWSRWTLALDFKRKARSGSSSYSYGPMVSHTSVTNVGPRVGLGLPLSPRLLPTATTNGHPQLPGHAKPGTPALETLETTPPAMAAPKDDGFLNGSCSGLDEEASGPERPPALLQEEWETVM

[7] = target: T3, PTHR-1 (species and cells not stated …); assay: cell-based or functional assay; remark: listed apart in the source
[8] = target: T2, rat parathyroid hormone receptor 1, …; assay: cell-based or functional assay; set-up: AUC-on / AUC-washout: unit not given beside the values
[9] = target: T2, rat parathyroid hormone receptor 1, …; assay: cell-based or functional assay; remark: listed apart in the source
[10] = target: T1, human parathyroid hormone receptor 1, …; assay: R0 state; 125I-PTH(1-34) displacement; COS-7 membranes, hPTHR-1, GTPγS
Text: ^aValues are means of n ≧4 experiments, each performed in duplicate.

[11] = target: T1, human parathyroid hormone receptor 1, …; assay: as above; remark: listed apart in the source
Text: FIGS. 6A, 6B, 6C, 6D, 6E, and 6F constitute a series of graphs depicting binding of various analogs to the R⁰ and RG forms of human PTHR-1 (hPTHR-1). […] Data are means (±SEM) of n≧4 experiments, each performed in duplicate.

[12] = target: T2, rat parathyroid hormone receptor 1, …; assay: RG state; 125I-M-PTH(1-15) displacement; COS-7 membranes, rPTHR-1 + Gαs mutant
Text: (§1) Binding inhibition constants are expressed as the -log (IC50) and corresponding nanoMolar (nM) values. Values are means (±SEM) of the number of experiments shown (n), each performed in duplicate.

[13] = target: T2, rat parathyroid hormone receptor 1, …; assay: R0 state; 125I-PTH(1-34) displacement; COS-7 membranes, rPTHR-1, GTPγS
Text: as §1

cAMP EC50 [1]: 0.18 nM
B1: CycD6 BA058 (peptide)
peptide: AVSEHQLLHDKGK[ACPC]IQD[ACPC]RRR[APC]LLE[APC]LL[Aib][ACPC]LHT[ACPC]-NH2

cAMP EC50 [2]: 1.03 nM
B2: D6 hPTHrP(1-34) ACPC(1,5,7) (peptide)
peptide: [ACPC]VSE[ACPC]Q[ACPC]LHDKGKSIQDLRRRFFLHKLIAEIHTA-NH2
modifications: not fully specified; also: D6 β3 residues, positions not shown (marking lost)

cAMP EC50 [3]: 0.29 nM | cAMP Max [4]: 74 cps × 10-3 | cAMP EC50 [5]: 0.29 nM
B3: A3 (peptide)
peptide: SVSEIQLMHNLGKHLNSMERVEWLRKKLQDVHNF
modifications: C-terminal amide; three β3 residues with native side chains, αααβ pattern; bold marks lost in text (inferred 23, 27, 31)

cAMP EC50 [1]: 141 nM
B4: D6 BA058 ACPC(1,7) (peptide)
peptide: [ACPC]VSEHQ[ACPC]LHDKGKSIQDLRRRELLEKLL[Aib]KLHT[ACPC]-NH2
modifications: not fully specified; also: D6 β3 residues, positions not shown (marking lost)

cAMP EC50 [1]: 0.26 nM
B5: BA058 ACPC(1,5,7) (peptide)
peptide: [ACPC]VSE[ACPC]Q[ACPC]LHDKGKSIQDLRRRELLEKLL[Aib]KLHTA-NH2

EC50(+)inhibitor/EC50(-)inhibitor [6]: 1.6 ratio | EC50 of PTH(1-34) signaling with 1 µM inhibitor [6]: 0.25 nM
B6: hPTH(7-34) (peptide)
peptide: LMHNLGKHLNSMERVEWLRKKLQDVHNF-NH2

cAMP EC50 [1]: 4.69 nM
B7: BA058 ACPC(1,7) (peptide)
peptide: [ACPC]VSEHQ[ACPC]LHDKGKSIQDLRRRELLEKLL[Aib]KLHTA-NH2

cAMP EC50 [2]: 1.08 nM
B8: CycD6 hPTHrP(1-34) ACPC(1,5,7) (peptide)
peptide: [ACPC]VSE[ACPC]Q[ACPC]LHDKGK[ACPC]IQD[ACPC]RRR[APC]FLH[APC]LIA[ACPC]IHT[ACPC]-NH2

cAMP EC50 [1]: 0.65 nM
B9: CycD6 BA058 ACPC(1,5,7) (peptide)
peptide: [ACPC]VSE[ACPC]Q[ACPC]LHDKGK[ACPC]IQD[ACPC]RRR[APC]LLE[APC]LL[Aib][ACPC]LHT[ACPC]-NH2

cAMP EC50 [1]: 18.9 nM
B10: CycD6 BA058 ACPC(1,7) (peptide)
peptide: [ACPC]VSEHQ[ACPC]LHDKGK[ACPC]IQD[ACPC]RRR[APC]LLE[APC]LL[Aib][ACPC]LHT[ACPC]-NH2

cAMP EC50 [2]: 0.65 nM
B11: CycD6 hPTHrP(1-34) (peptide)
peptide: AVSEHQLLHDKGK[ACPC]IQD[ACPC]RRR[APC]FLH[APC]LIA[ACPC]IHT[ACPC]-NH2

Fold PTH [7]: 4.2 fold | cAMP EC50 [7]: 0.34 nM | AUC Ratio [8]: 14.8 | AUC-on [8]: 43000 | AUC-washout [8]: 640000
B12: M-PTH(1-34) (peptide)
peptide: AVAEIQLMHQ[hArg]AKWLNSMRRVEWLRKKLQDVHNF-NH2
modifications: N-terminus assumed
SMILES: CC[C@H](C)[C@H](NC(=O)[C@H](CCC(=O)O)NC(=O)[C@H](C)NC(=O)[C@@H](NC(=O)[C@H](C)N)C(C)C)C(=O)N[C@@H](CCC(N)=O)C(=O)N[C@@H](CC(C)C)C(=O)N[C@@H](CCSC)C(=O)N[C@@H](Cc1c[nH]cn1)C(=O)N[C@@H](CCC(N)=O)C(=O)N[C@@H](CCCCNC(=N)N)C(=O)N[C@@H](C)C(=O)N[C@@H](CCCCN)C(=O)N[C@@H](Cc1c[nH]c2ccccc12)C(=O)N[C@@H](CC(C)C)C(=O)N[C@@H](CC(N)=O)C(=O)N[C@@H](CO)C(=O)N[C@@H](CCSC)C(=O)N[C@@H](CCCNC(=N)N)C(=O)N[C@@H](CCCNC(=N)N)C(=O)N[C@H](C(=O)N[C@@H](CCC(=O)O)C(=O)N[C@@H](Cc1c[nH]c2ccccc12)C(=O)N[C@@H](CC(C)C)C(=O)N[C@@H](CCCNC(=N)N)C(=O)N[C@@H](CCCCN)C(=O)N[C@@H](CCCCN)C(=O)N[C@@H](CC(C)C)C(=O)N[C@@H](CCC(N)=O)C(=O)N[C@@H](CC(=O)O)C(=O)N[C@H](C(=O)N[C@@H](Cc1c[nH]cn1)C(=O)N[C@@H](CC(N)=O)C(=O)N[C@@H](Cc1ccccc1)C(N)=O)C(C)C)C(C)C

cAMP Max [9]: 1 relative to PTH(1-34) | AUC-on [8]: 92000 | AUC-washout [8]: 100000 | cAMP Max [4]: 65 cps × 10-3
B13: PTH(1-34) (peptide)
peptide: SVSEIQLMHNLGKHLNSMERVEWLRKKLQDVHNF-NH2

IC50 [10]: 80 nM | -log (IC50) [11]: 7.1 | IC50 [11]: 80 nM | cAMP EC50 [3]: 0.11 nM | cAMP Max [3]: 234 cps × 10^-3 | cAMP pEC50 [3]: 9.94 | -log (IC50) [12]: 8.07 | IC50 [12]: 8.6 nM | -log (IC50) [13]: 6.95 | IC50 [13]: 111 nM | cAMP EC50 [4]: 0.55 nM | cAMP Max [4]: 69 cps × 10-3 | cAMP pEC50 [4]: 9.26 | cAMP EC50 [5]: 0.11 nM | cAMP Max [5]: 1.08 relative to PTH(1-34)
B14: B3 (peptide)
peptide: SVSEIQLMHNLGKHLNSMERVEWLRKKLQDVQNF-NH2
modifications: not fully specified (residue 32); printed as SVSEIQLMHNLGKHLNSMERVEWLRKKLQDVQNF-NH2; also: three β3 residues, positions not given here in text
notes: also called α/β-peptide B3

EC50(+)inhibitor/EC50(-)inhibitor [6]: 60.1 ratio | EC50 of PTH(1-34) signaling with 1 µM inhibitor [6]: 9.47 nM
B15: bPTH(7-34)dTrp12 (peptide)
peptide: FMHNL[dW]KHLSSMERVEWLRKKLQDVHNF-NH2
modifications: N-terminus assumed
SMILES: CSCC[C@H](NC(=O)[C@H](CO)NC(=O)[C@H](CO)NC(=O)[C@H](CC(C)C)NC(=O)[C@H](Cc1c[nH]cn1)NC(=O)[C@H](CCCCN)NC(=O)[C@@H](Cc1c[nH]c2ccccc12)NC(=O)[C@H](CC(C)C)NC(=O)[C@H](CC(N)=O)NC(=O)[C@H](Cc1c[nH]cn1)NC(=O)[C@H](CCSC)NC(=O)[C@@H](N)Cc1ccccc1)C(=O)N[C@@H](CCC(=O)O)C(=O)N[C@@H](CCCNC(=N)N)C(=O)N[C@H](C(=O)N[C@@H](CCC(=O)O)C(=O)N[C@@H](Cc1c[nH]c2ccccc12)C(=O)N[C@@H](CC(C)C)C(=O)N[C@@H](CCCNC(=N)N)C(=O)N[C@@H](CCCCN)C(=O)N[C@@H](CCCCN)C(=O)N[C@@H](CC(C)C)C(=O)N[C@@H](CCC(N)=O)C(=O)N[C@@H](CC(=O)O)C(=O)N[C@H](C(=O)N[C@@H](Cc1c[nH]cn1)C(=O)N[C@@H](CC(N)=O)C(=O)N[C@@H](Cc1ccccc1)C(N)=O)C(C)C)C(C)C
